Measurements published in PMC9352680, “A comprehensive thermodynamic model for RNA binding by the Saccharomyces cerevisiae Pumilio protein PUF4”.

Each binder was assayed against T1, PUF4 RNA-binding domain (Saccharomyces cerevisiae, UniProt P25339 537-888) (assay: Mg; RNA-MaP; 20 mM Na-HEPES pH 7.4, 30 mM KOAc, 0.75 mM MgCl2, 0.1% Tween-20, 5% glycerol, 0.1 mg/mL BSA, 2 mM DTT; 25 C; 0.0125-409.6 nM protein). Settings: tags: N-His6-TEV cleaved; C-SNAP kept, Cy3B-labelled; label: tethered on chip by stalled RNA polymerase.
T1 sequence: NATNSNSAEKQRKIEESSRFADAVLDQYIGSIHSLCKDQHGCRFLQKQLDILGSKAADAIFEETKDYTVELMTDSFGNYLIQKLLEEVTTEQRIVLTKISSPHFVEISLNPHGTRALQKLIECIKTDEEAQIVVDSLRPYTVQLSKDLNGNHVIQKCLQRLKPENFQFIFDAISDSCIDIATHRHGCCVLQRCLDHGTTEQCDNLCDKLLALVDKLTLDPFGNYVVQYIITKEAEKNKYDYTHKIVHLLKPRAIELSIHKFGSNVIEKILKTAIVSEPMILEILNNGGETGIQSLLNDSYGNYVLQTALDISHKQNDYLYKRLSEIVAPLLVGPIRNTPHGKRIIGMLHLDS

Binder | Kd
UCUCUUCUUAUAUUAUUACAUCUCUU (ssRNA) [Id_ii_S1_P5E.3_K5.2_C5.2_H5.2_A5.1_F5.1_T5.2_[T11C]] | 471 nM
UCUCUUCAUAUAUUAUUAUUUCUCUU (ssRNA) [Id_ii_S1_P5E.3_K5.2_C5.2_[T-1A]_H5.2_A5.1_F5.1_T5.2_[A12T]] | 395 nM
UCUCUUUCACACUUAUUAUAUCUCUU (ssRNA) [Id_ii_S1_P5E.4_K5.3_C5.2_[C-2T]_[T-1C]_H5.3_A5.1_F5.1_T5.2] | > 2300 nM
UCUCUUUCACACUUAUUACCUCUCUU (ssRNA) [Id_ii_S1_P5E.4_K5.3_C5.2_[C-2T]_[T-1C]_H5.3_A5.1_F5.1_T5.2_[T11C]_[A12C]] | > 2300 nM
UCUCUUUCACACUUAUUACAUCUCUU (ssRNA) [Id_ii_S1_P5E.4_K5.3_C5.2_[C-2T]_[T-1C]_H5.3_A5.1_F5.1_T5.2_[T11C]] | > 2300 nM
UCUCUUCUUAUAUUAUUAUUUCUCUU (ssRNA) [Id_ii_S1_P5E.3_K5.2_C5.2_H5.2_A5.1_F5.1_T5.2_[A12T]] | 228 nM
UCUCUUGCACACUUAUUAUCUCUCUU (ssRNA) [Id_ii_S1_P5E.4_K5.3_C5.2_[C-2G]_[T-1C]_H5.3_A5.1_F5.1_T5.2_[A12C]] | 1160 nM
UCUCUUCUUAUAUUAUUAGUUCUCUU (ssRNA) [Id_ii_S1_P5E.3_K5.2_C5.2_H5.2_A5.1_F5.1_T5.2_[T11G]_[A12T]] | 82.2 nM
UCUCUUUCACACUUAUUAAAUCUCUU (ssRNA) [Id_ii_S1_P5E.4_K5.3_C5.2_[C-2T]_[T-1C]_H5.3_A5.1_F5.1_T5.2_[T11A]] | > 2300 nM
UCUCUUUCACACUUAUUAUGUCUCUU (ssRNA) [Id_ii_S1_P5E.4_K5.3_C5.2_[C-2T]_[T-1C]_H5.3_A5.1_F5.1_T5.2_[A12G]] | > 2300 nM
UCUCUUGCACACUUAUUACCUCUCUU (ssRNA) [Id_ii_S1_P5E.4_K5.3_C5.2_[C-2G]_[T-1C]_H5.3_A5.1_F5.1_T5.2_[T11C]_[A12C]] | 1320 nM
UCUCUUGGACACUUAUUAUAUCUCUU (ssRNA) [Id_ii_S1_P5E.4_K5.3_C5.2_[C-2G]_[T-1G]_H5.3_A5.1_F5.1_T5.2] | > 2300 nM
UCUCUUGCACACUUAUUACAUCUCUU (ssRNA) [Id_ii_S1_P5E.4_K5.3_C5.2_[C-2G]_[T-1C]_H5.3_A5.1_F5.1_T5.2_[T11C]] | 1210 nM
UCUCUUCUUAUAUUAUUAAUUCUCUU (ssRNA) [Id_ii_S1_P5E.3_K5.2_C5.2_H5.2_A5.1_F5.1_T5.2_[T11A]_[A12T]] | 460 nM
UCUCUUGCACACUUAUUAACUCUCUU (ssRNA) [Id_ii_S1_P5E.4_K5.3_C5.2_[C-2G]_[T-1C]_H5.3_A5.1_F5.1_T5.2_[T11A]_[A12C]] | 1890 nM
UCUCUUUCACACUUAUUACGUCUCUU (ssRNA) [Id_ii_S1_P5E.4_K5.3_C5.2_[C-2T]_[T-1C]_H5.3_A5.1_F5.1_T5.2_[T11C]_[A12G]] | > 2300 nM
UCUCUUCUUAUAUUAUUACUUCUCUU (ssRNA) [Id_ii_S1_P5E.3_K5.2_C5.2_H5.2_A5.1_F5.1_T5.2_[T11C]_[A12T]] | 439 nM
UCUCUUUAACACUUAUUACUUCUCUU (ssRNA) [Id_ii_S1_P5E.4_K5.3_C5.2_[C-2T]_[T-1A]_H5.3_A5.1_F5.1_T5.2_[T11C]_[A12T]] | > 2300 nM
UCUCUUUGUAUUACUUUCUCUU (ssRNA) [Ib_S1_P5E.1_K5.1_C5.1_H5.1_A5.1_F5.1_[T8C]_[A10T]_T5.1] | 44.6 nM
UCUCUUGUACACUUAUUAUUUCUCUU (ssRNA) [Id_ii_S1_P5E.4_K5.3_C5.2_[C-2G]_H5.3_A5.1_F5.1_T5.2_[A12T]] | 3.73 nM
UCUCUUUGUAUUAUGGUCUCUU (ssRNA) [Ib_S1_P5E.1_K5.1_C5.1_H5.1_A5.1_F5.1_[T9G]_[A10G]_T5.1] | 7.8 nM

Binder | Kd
UCUCUUCUUAUAUUAUUACGUCUCUU (ssRNA) [Id_ii_S1_P5E.3_K5.2_C5.2_H5.2_A5.1_F5.1_T5.2_[T11C]_[A12G]] | 447 nM
UCUCUUUAACACUUAUUACGUCUCUU (ssRNA) [Id_ii_S1_P5E.4_K5.3_C5.2_[C-2T]_[T-1A]_H5.3_A5.1_F5.1_T5.2_[T11C]_[A12G]] | > 2300 nM
UCUCUUGUACACUUAUUAAUUCUCUU (ssRNA) [Id_ii_S1_P5E.4_K5.3_C5.2_[C-2G]_H5.3_A5.1_F5.1_T5.2_[T11A]_[A12T]] | 4.75 nM
UCUCUUCAUAUAUUAUUACGUCUCUU (ssRNA) [Id_ii_S1_P5E.3_K5.2_C5.2_[T-1A]_H5.2_A5.1_F5.1_T5.2_[T11C]_[A12G]] | 440 nM
UCUCUUGUACACUUAUUAUAUCUCUU (ssRNA) [Id_ii_S1_P5E.4_K5.3_C5.2_[C-2G]_H5.3_A5.1_F5.1_T5.2] | 3.91 nM
UCUCUUGUACACUUAUUAAAUCUCUU (ssRNA) [Id_ii_S1_P5E.4_K5.3_C5.2_[C-2G]_H5.3_A5.1_F5.1_T5.2_[T11A]] | 3.63 nM
UCUCUUUCACACUUAUUACUUCUCUU (ssRNA) [Id_ii_S1_P5E.4_K5.3_C5.2_[C-2T]_[T-1C]_H5.3_A5.1_F5.1_T5.2_[T11C]_[A12T]] | > 2300 nM
UCUCUUGCACACUUAUUACUUCUCUU (ssRNA) [Id_ii_S1_P5E.4_K5.3_C5.2_[C-2G]_[T-1C]_H5.3_A5.1_F5.1_T5.2_[T11C]_[A12T]] | 1530 nM
UCUCUUCAUAUAUUAUUAAUUCUCUU (ssRNA) [Id_ii_S1_P5E.3_K5.2_C5.2_[T-1A]_H5.2_A5.1_F5.1_T5.2_[T11A]_[A12T]] | 424 nM
UCUCUUGCACACUUAUUAAUUCUCUU (ssRNA) [Id_ii_S1_P5E.4_K5.3_C5.2_[C-2G]_[T-1C]_H5.3_A5.1_F5.1_T5.2_[T11A]_[A12T]] | 1370 nM
UCUCUUGCACACUUAUUACGUCUCUU (ssRNA) [Id_ii_S1_P5E.4_K5.3_C5.2_[C-2G]_[T-1C]_H5.3_A5.1_F5.1_T5.2_[T11C]_[A12G]] | > 2300 nM
UCUCUUUCACACUUAUUAAUUCUCUU (ssRNA) [Id_ii_S1_P5E.4_K5.3_C5.2_[C-2T]_[T-1C]_H5.3_A5.1_F5.1_T5.2_[T11A]_[A12T]] | > 2300 nM
UCUCUUCAUAUAUUAUUAGCUCUCUU (ssRNA) [Id_ii_S1_P5E.3_K5.2_C5.2_[T-1A]_H5.2_A5.1_F5.1_T5.2_[T11G]_[A12C]] | 157 nM
UCUCUUUGUAUUACUGUCUCUU (ssRNA) [Ib_S1_P5E.1_K5.1_C5.1_H5.1_A5.1_F5.1_[T8C]_[A10G]_T5.1] | 71.2 nM
UCUCUUCAUAUAUUAUUAACUCUCUU (ssRNA) [Id_ii_S1_P5E.3_K5.2_C5.2_[T-1A]_H5.2_A5.1_F5.1_T5.2_[T11A]_[A12C]] | 218 nM
UCUCUUCUUAUAUUAUUAACUCUCUU (ssRNA) [Id_ii_S1_P5E.3_K5.2_C5.2_H5.2_A5.1_F5.1_T5.2_[T11A]_[A12C]] | 476 nM
UCUCUUGUACACUUAUUAUCUCUCUU (ssRNA) [Id_ii_S1_P5E.4_K5.3_C5.2_[C-2G]_H5.3_A5.1_F5.1_T5.2_[A12C]] | 2.94 nM
UCUCUUUGUAUUAGUCUCUCUU (ssRNA) [Ib_S1_P5E.1_K5.1_C5.1_H5.1_A5.1_F5.1_[T8G]_[A10C]_T5.1] | 518 nM
UCUCUUUGUAUUAUCAUCUCUU (ssRNA) [Ia_S1_P5E.1_K5.1_C5.1_H5.1_A5.1_F5.1_[T9C]_T5.1] | 21.9 nM
UCUCUUCAUAUAUUAUUAUCUCUCUU (ssRNA) [Id_ii_S1_P5E.3_K5.2_C5.2_[T-1A]_H5.2_A5.1_F5.1_T5.2_[A12C]] | 180 nM
UCUCUUGUACACUUAUUACCUCUCUU (ssRNA) [Id_ii_S1_P5E.4_K5.3_C5.2_[C-2G]_H5.3_A5.1_F5.1_T5.2_[T11C]_[A12C]] | 3.22 nM

Binder | Kd
UCUCUUCUUAUAUUAUUAUCUCUCUU (ssRNA) [Id_ii_S1_P5E.3_K5.2_C5.2_H5.2_A5.1_F5.1_T5.2_[A12C]] | 491 nM
UCUCUUCAUAUAUUAUUACUUCUCUU (ssRNA) [Id_ii_S1_P5E.3_K5.2_C5.2_[T-1A]_H5.2_A5.1_F5.1_T5.2_[T11C]_[A12T]] | 321 nM
UCUCUUUGUAUUACUCUCUCUU (ssRNA) [Ib_S1_P5E.1_K5.1_C5.1_H5.1_A5.1_F5.1_[T8C]_[A10C]_T5.1] | 133 nM
UCUCUUGUACACUUAUUACUUCUCUU (ssRNA) [Id_ii_S1_P5E.4_K5.3_C5.2_[C-2G]_H5.3_A5.1_F5.1_T5.2_[T11C]_[A12T]] | 5.88 nM
UCUCUUUCACACUUAUUAUCUCUCUU (ssRNA) [Id_ii_S1_P5E.4_K5.3_C5.2_[C-2T]_[T-1C]_H5.3_A5.1_F5.1_T5.2_[A12C]] | > 2300 nM
UCUCUUGCACACUUAUUAUAUCUCUU (ssRNA) [Id_ii_S1_P5E.4_K5.3_C5.2_[C-2G]_[T-1C]_H5.3_A5.1_F5.1_T5.2] | 766 nM
UCUCUUCAUAUAUUAUUACCUCUCUU (ssRNA) [Id_ii_S1_P5E.3_K5.2_C5.2_[T-1A]_H5.2_A5.1_F5.1_T5.2_[T11C]_[A12C]] | 278 nM
UCUCUUGUACACUUAUUAGCUCUCUU (ssRNA) [Id_ii_S1_P5E.4_K5.3_C5.2_[C-2G]_H5.3_A5.1_F5.1_T5.2_[T11G]_[A12C]] | 5.16 nM
UCUCUUUAACACUUAUUACAUCUCUU (ssRNA) [Id_ii_S1_P5E.4_K5.3_C5.2_[C-2T]_[T-1A]_H5.3_A5.1_F5.1_T5.2_[T11C]] | > 2300 nM
UCUCUUGGACACUUAUUAACUCUCUU (ssRNA) [Id_ii_S1_P5E.4_K5.3_C5.2_[C-2G]_[T-1G]_H5.3_A5.1_F5.1_T5.2_[T11A]_[A12C]] | > 2300 nM
UCUCUUGCACACUUAUUAUUUCUCUU (ssRNA) [Id_ii_S1_P5E.4_K5.3_C5.2_[C-2G]_[T-1C]_H5.3_A5.1_F5.1_T5.2_[A12T]] | 1420 nM
UCUCUUUAACACUUAUUACCUCUCUU (ssRNA) [Id_ii_S1_P5E.4_K5.3_C5.2_[C-2T]_[T-1A]_H5.3_A5.1_F5.1_T5.2_[T11C]_[A12C]] | > 2300 nM
UCUCUUCUUAUAUUAUUAAAUCUCUU (ssRNA) [Id_ii_S1_P5E.3_K5.2_C5.2_H5.2_A5.1_F5.1_T5.2_[T11A]] | 730 nM
UCUCUUUCACACUUAUUAUUUCUCUU (ssRNA) [Id_ii_S1_P5E.4_K5.3_C5.2_[C-2T]_[T-1C]_H5.3_A5.1_F5.1_T5.2_[A12T]] | > 2300 nM
UCUCUUUGACACUUAUUAUCUCUCUU (ssRNA) [Id_ii_S1_P5E.4_K5.3_C5.2_[C-2T]_[T-1G]_H5.3_A5.1_F5.1_T5.2_[A12C]] | > 2300 nM
UCUCUUCUUAUAUUAUUAGCUCUCUU (ssRNA) [Id_ii_S1_P5E.3_K5.2_C5.2_H5.2_A5.1_F5.1_T5.2_[T11G]_[A12C]] | 122 nM
UCUCUUUCACACUUAUUAACUCUCUU (ssRNA) [Id_ii_S1_P5E.4_K5.3_C5.2_[C-2T]_[T-1C]_H5.3_A5.1_F5.1_T5.2_[T11A]_[A12C]] | > 2300 nM
UCUCUUCAUAUAUUAUUAGUUCUCUU (ssRNA) [Id_ii_S1_P5E.3_K5.2_C5.2_[T-1A]_H5.2_A5.1_F5.1_T5.2_[T11G]_[A12T]] | 141 nM
UCUCUUUCACACUUAUUAGCUCUCUU (ssRNA) [Id_ii_S1_P5E.4_K5.3_C5.2_[C-2T]_[T-1C]_H5.3_A5.1_F5.1_T5.2_[T11G]_[A12C]] | > 2300 nM
UCUCUUCUUAUAUUAUUACCUCUCUU (ssRNA) [Id_ii_S1_P5E.3_K5.2_C5.2_H5.2_A5.1_F5.1_T5.2_[T11C]_[A12C]] | 571 nM
